T1: 人源CRTAM蛋白全长 on CHO-K1-hCRTAM cells (human, UniProt O95727 18-393)
T1 construct: also called 细胞表面hCRTAM
T1 sequence: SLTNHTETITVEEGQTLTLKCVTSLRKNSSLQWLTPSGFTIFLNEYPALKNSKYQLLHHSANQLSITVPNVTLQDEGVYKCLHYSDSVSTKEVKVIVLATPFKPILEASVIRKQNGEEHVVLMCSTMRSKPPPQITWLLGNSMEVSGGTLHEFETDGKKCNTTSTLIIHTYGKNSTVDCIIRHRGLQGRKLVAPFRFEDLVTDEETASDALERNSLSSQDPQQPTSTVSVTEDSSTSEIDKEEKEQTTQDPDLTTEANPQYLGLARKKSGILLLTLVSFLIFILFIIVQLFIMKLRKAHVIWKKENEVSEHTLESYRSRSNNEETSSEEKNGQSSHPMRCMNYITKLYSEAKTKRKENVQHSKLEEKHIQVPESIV

T2: 猴源CRTAM蛋白全长 on CHO-K1-cCRTAM cells (猴源 (食蟹猴, cynomolgus monkey), UniProt O95727 18-393 (human entry))
T2 construct: also called 细胞表面食蟹猴CRTAM
T2 chain: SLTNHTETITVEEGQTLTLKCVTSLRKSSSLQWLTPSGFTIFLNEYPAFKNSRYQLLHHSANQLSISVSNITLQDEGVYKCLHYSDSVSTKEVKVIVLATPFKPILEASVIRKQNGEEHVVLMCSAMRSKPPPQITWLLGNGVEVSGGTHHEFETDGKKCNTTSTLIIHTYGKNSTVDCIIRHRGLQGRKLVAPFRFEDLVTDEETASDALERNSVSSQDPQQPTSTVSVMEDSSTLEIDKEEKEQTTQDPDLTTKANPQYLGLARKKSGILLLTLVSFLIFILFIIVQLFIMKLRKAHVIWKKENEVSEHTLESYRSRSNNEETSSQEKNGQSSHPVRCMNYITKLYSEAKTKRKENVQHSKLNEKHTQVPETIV


Columns and labels:
[1] = molecular target: T1, 人源CRTAM蛋白全长 on CHO-K1-hCRTAM cells; experiment: flow cytometry on CHO-K1-hCRTAM cells
[2] = molecular target: T2, 猴源CRTAM蛋白全长 on CHO-K1-cCRTAM cells; experiment: flow cytometry on CHO-K1-cCRTAM cells

| Binder | EC50 [1] [µg/mL] | EC50 [2] [µg/mL] |
| --- | --- | --- |
| HuC110-34 (antibody, V domains shown, also called HuC110-34-biotin; 抗CRTAM人源化抗体HuC110-34) VH: QVQLVQSGAEVKKPGASVKVSCKASGYTFTNNDINWVKQAPGQRLEWIGWIYPRDGSTQYNEKFRGRATITVDTSASTAYMELSSLRSEDTAVYFCARGLVDYWGQGTLVTVSS VL: DVVMTQSPDSLAVSLGERATINCRSSQSLVHSNKNTYLHWYLQKPGQPPKLLIYKVSNRFSGVPDRFSGSGSGTDFTLTISSLQAEDVAVYYCSQSTRVPWTFGGGTKLEIK | 0.0417 | 0.0507 |
| HuC94-31 (antibody, V domains shown, also called HuC94-31-biotin; 抗CRTAM人源化抗体HuC94-31) VH: EVQLLESGGGLVQPGGSLRLSCAASGFTFSTSAMSWVRQAPGKGLEWVATISSGGDYTYYSDNVKGRFTISRDNSKSTLYLQMNSLRAEDTAVYYCTLGYDEADYWGQGSLLTVSS VL: DIQMTQSPSSLSASVGDRVTITCRASQDISNYLNWYQQKPGKAPKLLIYYTSRLHSGVPSRFSGSGSGTDYTFTISSLQPEDIATYYCQQGDTFPWTFGGGTKLEIK |  | 0.035 |
| 人源化抗体5A11 (WO2019/086878) (antibody, human IgG1, lambda, V domains shown, also called 阳性对照抗体; 对照抗体) VH: EVQLVESGGGLVQPGGSLKLSCAASGFTFSDAAMYWVRQASGKGLEWVARIRTKTNNYAAHYVESVKGRFTVSRDDSKNTVYLQMNSLKTEDTAMYYCTSVPQGTQDYWGQGTLVTVSS VL: SYELTQPSSVSVSPGQTARITCSGDVLSKRYAQWSQQKPGQAIVSVIYKDSERPSGIPERFSGSSSGTTATLTISGAQVEDEADYYCLSTYADDNLPVFGGGTKLTVLG | 0.0607 |  |
| HuC124-42 (antibody, V domains shown, also called HuC124-42-biotin; 抗CRTAM人源化抗体HuC124-42) VH: QVQLVQSGAEVKKPGSSVKVSCKASGYSFSNYWIEWVRQAPGQGLEWIGEILPGVPTIYYNAKFKDRVTFTADKSTSTAYMELSSLRSEDTAVYYCSRDPWFAYWGQGTLVTVSA VL: EIVLTQSPATLSVSPGERATFSCRASQSIGTSLHWFQQKPGQAPRLLIKYASQSISGIPARFSGSGSGTEFTLTISSVQSEDFAVYYCQQSNNWPFTFGGGTKLEIK |  | 0.0904 |
